Data on two molecules can be found in publication PMC3624988 (Developmental cell, 2013).

The target of the test is Flag:Jub (full length Ajuba LIM protein Jub, 1-729aa) (Drosophila, UniProt Q9VY77 1-728). Description: co-IP.
Flag:Jub (full length Ajuba LIM protein Jub, 1-729aa), sequence (Q9VY77 whole entry): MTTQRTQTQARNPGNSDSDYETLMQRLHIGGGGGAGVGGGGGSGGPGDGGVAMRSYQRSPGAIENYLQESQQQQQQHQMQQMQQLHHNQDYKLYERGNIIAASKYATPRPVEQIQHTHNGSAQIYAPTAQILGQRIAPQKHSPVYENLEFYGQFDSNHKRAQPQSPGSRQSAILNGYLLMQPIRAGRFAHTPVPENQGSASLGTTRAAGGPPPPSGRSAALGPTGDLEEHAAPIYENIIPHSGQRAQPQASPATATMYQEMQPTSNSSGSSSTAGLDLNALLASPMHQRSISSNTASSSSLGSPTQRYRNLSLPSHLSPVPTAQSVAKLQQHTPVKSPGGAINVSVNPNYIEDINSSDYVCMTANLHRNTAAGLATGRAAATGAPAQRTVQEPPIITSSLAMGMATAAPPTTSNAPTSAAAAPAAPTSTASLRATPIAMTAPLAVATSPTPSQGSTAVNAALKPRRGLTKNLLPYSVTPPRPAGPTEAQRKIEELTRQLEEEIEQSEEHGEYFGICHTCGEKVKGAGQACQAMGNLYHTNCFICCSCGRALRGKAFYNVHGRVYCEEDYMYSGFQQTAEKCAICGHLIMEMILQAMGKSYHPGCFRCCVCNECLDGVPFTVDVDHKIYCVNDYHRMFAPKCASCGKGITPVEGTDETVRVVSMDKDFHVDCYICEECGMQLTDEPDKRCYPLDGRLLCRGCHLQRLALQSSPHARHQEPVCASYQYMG

B1: Myc:Wts (Myc-tagged Warts) (enzyme, Drosophila, UniProt Q9VA38 1-1105, looked up)
chain: MHPAGEKRGGRPNDKYTAEALESIKQDLTRFEVQNNHRNNQNYTPLRYTATNGRNDALTPDYHHAKQPMEPPPSASPAPDVVIPPPPAIVGQPGAGSISVSGVGVGVVGVANGRVPKMMTALMPNKLIRKPSIERDTASSHYLRCSPALDSGAGSSRSDSPHSHHTHQPSSRTVGNPGGNGGFSPSPSGFSEVAPPAPPPRNPTACSAATPPPPVPPTSQAYVKRRSPALNNRPPAIAPPTQRGNSPVITQNGLKNPQQQLTQQLKSLNLYPGGGSGAVVEPPPPYLIQGGAGGAAPPPPPPSYTASMQSRQSPTQSQQSDYRKSPSSGIYSATSAGSPSPITVSLPPAPLAKPQPRVYQARSQQPIIMQSVKSTQVQKPVLQTAVAPQSPSSASASNSPVHVLAAPPSYPQKSAAVVQQQQQAAAAAHQQQHQHQQSKPPTPTTPPLVGLNSKPNCLEPPSYAKSMQAKAATVVQQQQQQQQQQQQVQQQQVQQQQQQQQQQLQALRVLQAQAQRERDQRERDQRERERDQQKLANGNPGRQMLPPPPYQSNNNNNSEIKPPSCNNNNIQISNSNLATTPPIPPAKYNNNSSNTGANSSGGSNGSTGTTASSSTSCKKIKHASPIPERKKISKEKEEERKEFRIRQYSPQAFKFFMEQHIENVIKSYRQRTYRKNQLEKEMHKVGLPDQTQIEMRKMLNQKESNYIRLKRAKMDKSMFVKLKPIGVGAFGEVTLVSKIDTSNHLYAMKTLRKADVLKRNQVAHVKAERDILAEADNNWVVKLYYSFQDKDNLYFVMDYIPGGDLMSLLIKLGIFEEELARFYIAEVTCAVDSVHKMGFIHRDIKPDNILIDRDGHIKLTDFGLCTGFRWTHNSKYYQENGNHSRQDSMEPWEEYSENGPKPTVLERRRMRDHQRVLAHSLVGTPNYIAPEVLERSGYTQLCDYWSVGVILYEMLVGQPPFLANSPLETQQKVINWEKTLHIPPQAELSREATDLIRRLCASADKRLGKSVDEVKSHDFFKGIDFADMRKQKAPYIPEIKHPTDTSNFDPVDPEKLRSNDSTMSSGDDVDQNDRTFHGFFEFTFRRFFDDKQPPDMTDDQAPVYV
B1: the “fold change of binding with Ras-MAPK activation against without” value amounted to 2 fold.

B2: Sav:V5 (V5-tagged Salvador) (natural protein, Drosophila, UniProt Q9VCR6 1-608, looked up)
chain: MNYLTILLCNRKPTMLSRRNKEKSQHKEGVVGKYMKKDTPPDISVINVWSDQRAKKKSLQRCASTSPSCEFHPRSSSTSRNTYSCTDSQPDYYHARRAQSQMPLQQHSHSHPHSLPHPSHPHVRSHPPLPPHQFRASSNQLSQNSSNYVNFEQIERMRRQQSSPLLQTTSSPAPGAGGFQRSYSTTQRQHHPHLGGDSYDADQGLLSASYANMLQLPQRPHSPAHYAVPPQQQQHPQIHQQHASTPFGSTLRFDRAAMSIRERQPRYQPTSSPMQQQQQQQQQQQQQLQHTQLAAHLGGSYSSDSYPIYENPSRVISMRATQSQRSESPIYSNTTASSATLAVVPQHHHQGHLAVPSGSGGGSLSGSGRGGSSGSVRGASTSVQSLYVPPRTPPSAVAGAGGSANGSLQKVPSQQSLTEPEELPLPPGWATQYTLHGRKYYIDHNAHTTHWNHPLEREGLPVGWRRVVSKMHGTYYENQYTGQSQRQHPCLTSYYVYTTSAEPPKAIRPEASLYAPPTHTHNALVPANPYLLEEIPKWLAVYSEADSSKDHLLQFNMFSLPELEGFDSMLVRLFKQELGTIVGFYERYRRALILEKNRRAGQNQNQNQ
Take B2: the “fold change of binding with Ras-MAPK activation against without” value turned out to be 3 fold.
